# Laboratory results reported in the DeepSol protein solubility set.
# Test: soluble on expression in E. coli; label from the status in PepcDB or PDB records
row,Sequence,soluble on expression in E. coli
1,MNPERQETISPKNVPFQPVPTPNQQSLQSRMLESNQAVPDAFQKVAAWNHYNAVATPPIGVPQTARPPSNQSPHPNPPGYPYQSHQQQFHPLAIAFQQPFGLPQQVIYPPPPPGFTPHRVQVSPVGLLGPPGFFPQFAGSTTSQGNPSEVSVRTKSAEGTTGPIAPSITTKPTSTIQVAPPRDPVAPTTSSSGITKKPENGEFSLVKTISGHTKSVSVIKFSYCGKYLGTGSADKQIKVWNTVDMTYLQTLASHQLGINDFSWSSNSQFIASASDDTTVKIFDVISGACLRTMRGHTNYVFCCSFNPQSSLIASAGFDETVRVWDFKTGLCVKCIPAHSDPITSISYNHDGNTMATSSYDGCIRVWDAASGSCLKTLVDTDHAPVTFVCFSPNGKYLLSAQLDSSLKLWDPKKAKPLKYYNGHKNKKYCLFANMSVPLGKHIISGSEDGRILVWSIQTKQIVQILEGHTTPVLATDSHPTLNIIASGGLEPDNVIRIWRRN,not soluble
2,MLGGDWTDGTMTDFKWRHFQGDVILWAVRWYCRYPISYRDLEEMLAERGISVDHTTIYRWVQCYAPEMEKRLRWFWRRGFDPSWRLDETYVKVRGKWTYLYRAVDKRGDTIDFYLSPTRSAKAAKRFLGKALRGLKHWEKPATLNTDKAPSYGAAITELKREGKLDRETAHRQVKYLNNVVEADHGKLKILIKPVRGFKSIPTAYATIKGFEVMRALRKGQARPWCLQPGIRGEVRLVERAFGIGPSALTEAMGMLNHHFAAAA,not soluble
3,MGIHFVDKADLWKSALLFNLKLRDRFRIAVDDHRGRATDLTAEEESALFRMLQTVAVPLIGNACHVFMNGFNRVQVYGLEKLHDALLNRPKNKPLVTVSNHVASVDDPFVIASLLPPKFLLDARNLRWTLCATDRCFKNPVTSAFSRSVKVLPISRGEGIYQQGMDIAISKLNNGGWVHIFPEGSRSRDGGKTMGSAKRGIGRLILDADTLPMVVPFVHTGMQDIMPVGASVPRIGKTVTVIIGDPIHFNDILSTEGAQHVSRKHLYDAVSSRIGQRLYDLKAQVDRVYIEQQSMMSHNAKTPSDRAAEIFHRVDWDSFGMGAQFSEESSPSSKPIGQSDDRIVRSPKRRVSPEGGVSLKIKKLMDSTEMMGFAARGLLMNEYKSRVESANVGRPLKAWREYFMNRGL,soluble
4,SDTGVIEGGLNVTLTIRLLMHGKEVGSIIGKKGESVKKMREESGARINISEGNCPERIITLAGPTNAIFKAFAMIIDKLEEDISSSMTNSTAASRPPVTLRLVVPASQCGSLIGKGGCKIKEIRESTGAQVQVAGDMLPNSTERAITIAGIPQSIIECVKQICVVMLETLSQSPPKGVTIPYRPKPSSSPVIFAGGQDRYSTGSDSASFPHTTPSMCLNPDLEGPPLEAYTIQGQYAIPQPDLTKLHQLAMQQSHFPMTHGNTGFSGIESSSPEVKGYWAGLDASAQTTSHELTIPNDLIGCIIGRQGAKINEIRQMSGAQIKIANPVEGSTDRQVTITGSAASISLAQYLINVRLSSETGGMGSS,soluble
5,MSKVKRKLKNIVRNIMLSETFANTNLVKNMRKNHKEKLEEGRRVLFKEHAKDCLETIKENLDKNNLHFWLDYGTLLGAMREKDFIAHDLDIDLGMFYENQVEEVEKAFKEANIKKVREFTLDGKVVEQTYSYKGLYFDIFYYFKDENLMWTYGFTFKNNKLNKVSYKDKDVSTGFEGMKYFVKKRGLEKIMFKGKEYTVPENPDGYLRENYGPNYMTPIKEWDYVEAPTNQEKLKGGDIVMIEYYNLEHHHHHH,soluble
6,MSVNALYDYKFEPKDKVENFHGMQLLYVYWPDHLLFCAPFALLVQPGMTFSALVDEILKPATAAHPDSAKADFLNAEWLLNDEPFTPKADASLKEQGIDHKSMLTVTTPGLKGMANAGY,soluble
7,MSSFGHRAFFSCCLLLEGETLHSIKLRKEATYQPQSGWPVRWPIRYPRALPLASHVHPYHMIVKLPHPRTQPRLFLWLSLHWTGIPFLGKPGIGRNRVKSKQFSHFQQSKIKTTMRKKTTNRKQKAERCQYRLVTA,not soluble
8,MRLNHKQGTAGEDAALAFLQSQGCTLLARNWHCAYGEIDLIVKNGGMILFVEVKYRKNQRFGGAAYSISPSKLLKLQRSVEYYLQQNRLTNVPCRLDAVLIEGNRPPEWIKNITG,soluble
9,MGSDKIHHHHHHMPLKTPPCVRRHTTGHETCSAQRSEHDGRRHLFPHDARALEIQERDVTHPIVSSEVPVEYINLPEPQTEGGMPLMTALHKRRSVRSFAQRPLDEALLSTLLWAAFGINRPDTGLRTAPSARNWQEIDVYVAMPDGLYALEPAAWRLRLVTGEDLRAATGLQDYVSTAPLDLVYVSRLSKLDETDKPMRQFYTALDTGYISQNVYLFCAASGLATVARGLLDRRALAKAMRLDPDQRVVLAQSVGFPA,not soluble
10,MSAEEKNLIEILEEGHKVDVVKYIDYVSAPQAGAIATFSGTTRDMFEGKTVLELRYEAYVPMATRCLSSICTTARSTWDIHKIAVAHRLGPVPVGETSVLIAVSSVHRADGLDACKFLIDELKASVPIWKKEVYTNGEIWKENSEFMEKRLELAEKRDSIVKKTVVEEHRRRGCCGSKVRVEEDEEHKDITGDNKSSS,soluble
11,MEDIGADSDDFFSLAEELPQNEDLLESEDDAPIIKLINAMLGEAIKEGASDIHIETFEKTLSIRFRVDGVLREVLAPSRKLSSLLVSRVKVMAKLDIAEKRVPQDGRISLRIGGRAVDVRVSTMPSSHGERVVMRLLDKNATRLDLHSLGMTAHNHDNFRRLIKRPHGIILVTGPTGSGKSTTLYAGLQELNSSERNILTVEDPIEFDIDGIGQTQVNPRVDMTFARGLRAILRQDPDVVMVGEIRDLETAQIAVQASLTGHLVMSTLHTNTAVGAVTRLRDMGIEPFLISSSLLGVLAQRLVRTLCPDCKEPYEADKEQRKLFDSKKKEPLILYRATGCPKCNHKGYRGRTGIHELLLVDDALQELIHSEAGEQAMEKHIRATTPSIRDDGLDKVRQGITSLEEVMRGSRSHHHHHH,soluble
12,MARMYRALTRDIEVTVDPYYLEEQSDPDDDRYVWGYKVVIANNSDVPVKLVNRYWHITDQNGQVDEVYGPGVVGEQPQLKPGDSYEYSSGCPLDTPSGLMFGHYEMETENGEVFNVTIPAFSLDSPGLMRVLNAAALEHHHHHH,soluble
13,MLISKVIKKQFAQETIENVHIAKGTAMFQGVRLTVRCFVIDGVLIDTGAKSMENEFTSFFQQQDIDQVVITHFHEDHTGCAAFLQRKMGLPIYMNELMIHYCQQKADYPLYRKVFWGKRDPFTAKPIGATFSSRSATWDVIPTPGHSIDHVAFLNRETGQLFSGDLYCQEKTKVILREENIPAIITSLQHVLTYDFGDVFCAHAGYLPNGREALQRKLDYLLELQGTIIDLYEKGTPPKQIQALLFPKKYPIVFFSGGEWDSLHIIRSVIQEYETKQAG,not soluble
14,MGSDKIHHHHHHMTLLIVGATGTLGRQVARRAIDEGYKVRCLVRSPKRAAFLKEWGAELVRGDLCQPQTLAEALEGVTAVIDAATSRATDSLTIKQVDWEGQIALIQAAKAASVERFIFFSIIDADKYPEVPLMEIKRCTELFLAESGINYTVLRLAGFMQGLIGQYGIPILEGQPVWVTGASSPVAYMDTLDIAKFAVRALSVPETEKQAFPVVGTRAWSAEEIINLCERLSGKEAKVRRMPINLLRAVRGLAKFFQWGWNIADRLAFTEVLASGRPLNASMDEVYTVFGLEKEQSTTLESYLQEYFSRILKKLKQLDYEKTKTKKQKDKKTPFKKVNS,not soluble
15,MDFECQFVCELKELAPVPALLIRTQTTMSELGSLFEAGYHDILQLLAGQGKSPSGPPFARYFGMSAGTFEVEFGFPVEGGVEGSGRVVTGLTPSGKAASSLYIGPYGEIEAVYDALMKWVDDNGFDLSGEAYEIYLDNPAETAPDQLRTRVSLMLHESLEHHHHHH,soluble
16,MQKSSLISHRFSFCKVCGGKANGNHFGIQSCRACAAFFRRAANSKWSSMKCTTFGCADMLVPCKPCRLKRCQEQGMSTTNFQFDRDALKRLLVPKSVEKFVGRPESVIFCDMTESTSKTFIDIRPLIEKTSNILKNGAEGPIFGRNQLQKLANGFENYTNEISVKMIKKIGKSETADCWEYYITTTAKWLNYFNGFKLLSHELQVGKYVFFIEIFSK,not soluble
17,MGSDKIHHHHHHVILKAKVYHKVFAFKDLKEVLAKANEEKSGDVLAGIGATSASERVAAKLVLSNLTLEDLYNHPVLPYEEDEVTRVIYDGLNLRIYQEMKGWTVGQLREYILDHGTTGSHLNHISRGLTSEMIAAVAKLMSNMDLVYGSKKMRHQAHCNTTIGIPGTLAFRCQPNHPTDSVEGVMASLKEGLSYGSGDAVIGINPVEDNVDTLSRLLETVKEFMQQWEIPTQNCVLAHITTQMKAITKGVPIDLVFQSIAGTQKANEAFGISKELIDEAFALIQRNGTATGPNLMYFETGQGSEISLAAHHGVDMMTLESRTYGFGRHYRPFLLNNVSGFIGPETIYSGREVIRADLEDLFMGKLHGLPMGIAPCYTNHMKADQNDQEIATLLCAMAGANYFMGLPGGDDVMLSYQDTSYHDDAATREILGLRPLPEFEKWLEKMGIMENGQLTERAGDPSVFDK,not soluble
18,HVHVVSNEILGLTNLLKDKKIKSKVIQFEVQFPTEEVAAHLSIDQKTPVYYVVRLRIVEGEPYVLEKTYMPTHLIPGINDDVLHDSIYNHITNVLQLKIAGTHRKIRACKSDHIDQQHLGCKQDDPILEVEHVGFLDTGIPFEYSFSRHRHDKFVVTSVNIRR,not soluble
19,MVQLSLSQVHQDQIYRHGERCYPEECCGLLLGKILIGENGHRHWQVVEVQPTENCWGDVEEFQQNNHQGNKLHYFAIDPKVLLSAQKDCRQKGLSIIGIFHSHPHGQPIPSEFDRAIAWPEYIYLIASGLEHHHHHH,not soluble
20,MSLKVYVVKKGYRPGIYHSWPEAEEQVKGFPGAEYKSFSNIMEALDYQQMDPEDALKALQGAEDKLQAAIAKVRQGGSKKKQAESQKEFAASSKYAAHIFTDGGCRNNGTHKGGHVQADDKAAWAYLIEYGGQKLSASGGRFGATNNEMEMTAFLESLKKLEELGLNDQPLLFSLDSQYVIKAVSDNDQGPAWIKGWQRRGWKKADGSPVANRELWQEIAKEMAKFAQPEFEWVKGHANSAGNNFVDGLLNKYMDQEGHHHHHH,soluble
21,SLTHYKYYEANVETNQVLVFLHGFLSDSRTYHNHIEKFTDNYHVITIDLPGHGEDQSSMDETWNFDYITTLLDRILDKYKDKSITLFGYSMGGRVALYYAINGHIPISNLILESTSPGIKEEANQLERRLVDDARAKVLDIAGIELFVNDWEKLPLFQSQLELPVEIQHQIRQQRLSQSPHKMAKALRDYGTGQMPNLWPRLKEIKVPTLILAGEYDEKFVQIAKKMANLIPNSKCKLISATGHTIHVEDSDEFDTMILGFLKEEQND,soluble
22,MGVYGMEQNFGLISIIMAAYNAENTIEKAVMSVMAQTYTQFELIIINDCSTDKTLSIIKKFEEFDKRIFLINNSYNRGVSYSRRYGLEKARGEWIAILDSDDAWAADKLEKQIRLQKEKNADLVYTGSAFMDSSGNSIEWYLHVPPEIGYRKLLKQNLISNSSALVRKELYMQYYASGDNMHEDFAIWLRILKTGRKAYGIDEPLLIYRFMRKSKSGNKLIAAKMNWNTYRYIGLDVVSRMYYMIWYMFNGLKKYITLNNEVAKV,not soluble
23,SLNEQELQDLQKMVGVAVNALGDIKAKDISVLETQDKTSLFARMIIASGDSTRQVKALANNVAVDLKEAGFEILSTEGDSGEWTLVDAGDLVVHVMLPAVRDFYDIDTLWGGEKPSFHAGMQKPWHAAD,soluble
